In patent US20080138335A1 (Kyowa Kirin, published 2008):

Biological target: T1, CD40 expressed on Ramos [ATCC] cells (UniProt P25942 21-277, limits assumed)
T1 construct: whole, on cells; Target of all flow cytometry and CD95 assays; endogenous CD40 on the Ramos cell line
Assay: flow cytometry (FACS) on Ramos cells expressing CD40, R-PE anti-human antibody

T1 sequence (P25942 21-277 limits assumed): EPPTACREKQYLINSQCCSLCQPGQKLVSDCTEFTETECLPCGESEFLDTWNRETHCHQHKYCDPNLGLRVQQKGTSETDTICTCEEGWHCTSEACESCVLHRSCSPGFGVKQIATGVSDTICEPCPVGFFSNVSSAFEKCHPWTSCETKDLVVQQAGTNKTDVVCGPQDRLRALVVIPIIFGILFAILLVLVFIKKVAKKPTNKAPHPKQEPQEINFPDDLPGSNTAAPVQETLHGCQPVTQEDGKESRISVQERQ

Binder | binding result
341-G [1/1/2/2] (antibody, also called IgG[1/1/2/2]; N5KG1122; not shown: human IgG1 heavy chain constant region, CH1 and hinge domains (EU 118-237), from vector N5KG1-Val Lark; human IgG2 heavy chain constant region, CH2 and CH3 domains (EU 238-446), from vector N5KG2) heavy: QVQLQQSGPGLVKPSQTLSLTCAISGDSVSSNSATWNWIRQSPSRDLEWLGRTYYRSKWYRDYVGSVKSRIIINPDTSNNQFSLQLNSVTPEDTAIYYCTRAQWLGGDYPYYYSMDVWGQGTTVTVSS VL: EIVLTQSPATLSLSPGERATLSCRASQSVSSYLAWYQQKPGQAPRLLIYDASNRATGIPARFSGSGSGTDFTLTISSLEPEDFAVYYCQQRSNTFGPGTKVDIK | binds
341-G [2/2/1/1] (antibody, also called IgG[2/2/1/1]; N5KG2211; not shown: human IgG2 heavy chain constant region, CH1 and hinge domains (EU 118-237), from vector N5KG2; human IgG1 heavy chain constant region, CH2 and CH3 domains (EU 238-446), from vector N5KG1) heavy: QVQLQQSGPGLVKPSQTLSLTCAISGDSVSSNSATWNWIRQSPSRDLEWLGRTYYRSKWYRDYVGSVKSRIIINPDTSNNQFSLQLNSVTPEDTAIYYCTRAQWLGGDYPYYYSMDVWGQGTTVTVSS VL: EIVLTQSPATLSLSPGERATLSCRASQSVSSYLAWYQQKPGQAPRLLIYDASNRATGIPARFSGSGSGTDFTLTISSLEPEDFAVYYCQQRSNTFGPGTKVDIK | binds
341-G2Ser[Q274K] (antibody, human IgG2, kappa, Made from the 341-G2Ser expression vector; also called N5KG2Ser-341-Q274K) heavy: QVQLQQSGPGLVKPSQTLSLTCAISGDSVSSNSATWNWIRQSPSRDLEWLGRTYYRSKWYRDYVGSVKSRIIINPDTSNNQFSLQLNSVTPEDTAIYYCTRAQWLGGDYPYYYSMDVWGQGTTVTVSSASTKGPSVFPLAPCSRSTSESTAALGCLVKDYFPEPVTVSWNSGALTSGVHTFPAVLQSSGLYSLSSVVTVPSSNFGTQTYTCNVDHKPSNTKVDKTVERKCCVECPPCPAPPVAGPSVFLFPPKPKDTLMISRTPEVTCVVVDVSHEDPEVKFNWYVDGVEVHNAKTKPREEQFNSTFRVVSVLTVVHQDWLNGKEYKCKVSNKGLPASIEKTISKTKGQPREPQVYTLPPSREEMTKNQVSLTCLVKGFYPSDIAVEWESNGQPENNYKTTPPMLDSDGSFFLYSKLTVDKSRWQQGNVFSCSVMHEALHNHYTQKSLSLSPGK light: not shown | binds
341-G2Ser[F300Y] (antibody, human IgG2, kappa, Made from the 341-G2Ser expression vector; also called N5KG2Ser-341-F300Y) heavy: QVQLQQSGPGLVKPSQTLSLTCAISGDSVSSNSATWNWIRQSPSRDLEWLGRTYYRSKWYRDYVGSVKSRIIINPDTSNNQFSLQLNSVTPEDTAIYYCTRAQWLGGDYPYYYSMDVWGQGTTVTVSSASTKGPSVFPLAPCSRSTSESTAALGCLVKDYFPEPVTVSWNSGALTSGVHTFPAVLQSSGLYSLSSVVTVPSSNFGTQTYTCNVDHKPSNTKVDKTVERKCCVECPPCPAPPVAGPSVFLFPPKPKDTLMISRTPEVTCVVVDVSHEDPEVQFNWYVDGVEVHNAKTKPREEQFNSTYRVVSVLTVVHQDWLNGKEYKCKVSNKGLPASIEKTISKTKGQPREPQVYTLPPSREEMTKNQVSLTCLVKGFYPSDIAVEWESNGQPENNYKTTPPMLDSDGSFFLYSKLTVDKSRWQQGNVFSCSVMHEALHNHYTQKSLSLSPGK light: not shown | binds
341-G2Ser[T339A] (antibody, human IgG2, kappa, Made from the 341-G2Ser expression vector; also called N5KG2Ser-341-T339A) heavy: QVQLQQSGPGLVKPSQTLSLTCAISGDSVSSNSATWNWIRQSPSRDLEWLGRTYYRSKWYRDYVGSVKSRIIINPDTSNNQFSLQLNSVTPEDTAIYYCTRAQWLGGDYPYYYSMDVWGQGTTVTVSSASTKGPSVFPLAPCSRSTSESTAALGCLVKDYFPEPVTVSWNSGALTSGVHTFPAVLQSSGLYSLSSVVTVPSSNFGTQTYTCNVDHKPSNTKVDKTVERKCCVECPPCPAPPVAGPSVFLFPPKPKDTLMISRTPEVTCVVVDVSHEDPEVQFNWYVDGVEVHNAKTKPREEQFNSTFRVVSVLTVVHQDWLNGKEYKCKVSNKGLPASIEKTISKAKGQPREPQVYTLPPSREEMTKNQVSLTCLVKGFYPSDIAVEWESNGQPENNYKTTPPMLDSDGSFFLYSKLTVDKSRWQQGNVFSCSVMHEALHNHYTQKSLSLSPGK light: not shown | binds
341-G2Ser[V309L] (antibody, human IgG2, kappa, Made from the 341-G2Ser expression vector; also called N5KG2Ser-341-V309L) heavy: QVQLQQSGPGLVKPSQTLSLTCAISGDSVSSNSATWNWIRQSPSRDLEWLGRTYYRSKWYRDYVGSVKSRIIINPDTSNNQFSLQLNSVTPEDTAIYYCTRAQWLGGDYPYYYSMDVWGQGTTVTVSSASTKGPSVFPLAPCSRSTSESTAALGCLVKDYFPEPVTVSWNSGALTSGVHTFPAVLQSSGLYSLSSVVTVPSSNFGTQTYTCNVDHKPSNTKVDKTVERKCCVECPPCPAPPVAGPSVFLFPPKPKDTLMISRTPEVTCVVVDVSHEDPEVQFNWYVDGVEVHNAKTKPREEQFNSTFRVVSVLTVLHQDWLNGKEYKCKVSNKGLPASIEKTISKTKGQPREPQVYTLPPSREEMTKNQVSLTCLVKGFYPSDIAVEWESNGQPENNYKTTPPMLDSDGSFFLYSKLTVDKSRWQQGNVFSCSVMHEALHNHYTQKSLSLSPGK light: not shown | binds
341-G2Ser[G327A] (antibody, human IgG2, kappa, Made from the 341-G2Ser expression vector; also called N5KG2Ser-341-G327A) heavy: QVQLQQSGPGLVKPSQTLSLTCAISGDSVSSNSATWNWIRQSPSRDLEWLGRTYYRSKWYRDYVGSVKSRIIINPDTSNNQFSLQLNSVTPEDTAIYYCTRAQWLGGDYPYYYSMDVWGQGTTVTVSSASTKGPSVFPLAPCSRSTSESTAALGCLVKDYFPEPVTVSWNSGALTSGVHTFPAVLQSSGLYSLSSVVTVPSSNFGTQTYTCNVDHKPSNTKVDKTVERKCCVECPPCPAPPVAGPSVFLFPPKPKDTLMISRTPEVTCVVVDVSHEDPEVQFNWYVDGVEVHNAKTKPREEQFNSTFRVVSVLTVVHQDWLNGKEYKCKVSNKALPASIEKTISKTKGQPREPQVYTLPPSREEMTKNQVSLTCLVKGFYPSDIAVEWESNGQPENNYKTTPPMLDSDGSFFLYSKLTVDKSRWQQGNVFSCSVMHEALHNHYTQKSLSLSPGK light: not shown | binds
341-G2Ser[F296Y] (antibody, human IgG2, kappa, Made from the 341-G2Ser expression vector; also called N5KG2Ser-341-F296Y) heavy: QVQLQQSGPGLVKPSQTLSLTCAISGDSVSSNSATWNWIRQSPSRDLEWLGRTYYRSKWYRDYVGSVKSRIIINPDTSNNQFSLQLNSVTPEDTAIYYCTRAQWLGGDYPYYYSMDVWGQGTTVTVSSASTKGPSVFPLAPCSRSTSESTAALGCLVKDYFPEPVTVSWNSGALTSGVHTFPAVLQSSGLYSLSSVVTVPSSNFGTQTYTCNVDHKPSNTKVDKTVERKCCVECPPCPAPPVAGPSVFLFPPKPKDTLMISRTPEVTCVVVDVSHEDPEVQFNWYVDGVEVHNAKTKPREEQYNSTFRVVSVLTVVHQDWLNGKEYKCKVSNKGLPASIEKTISKTKGQPREPQVYTLPPSREEMTKNQVSLTCLVKGFYPSDIAVEWESNGQPENNYKTTPPMLDSDGSFFLYSKLTVDKSRWQQGNVFSCSVMHEALHNHYTQKSLSLSPGK light: not shown | binds
